Biological target: T1, VPS10P domain of sortilin fused with GST (mouse, UniProt Q6PHU5 76-750)
T1 construct: also called GST-VPS10P; GST-tagged VPS10P domain of sortilin
T1 sequence (looked up): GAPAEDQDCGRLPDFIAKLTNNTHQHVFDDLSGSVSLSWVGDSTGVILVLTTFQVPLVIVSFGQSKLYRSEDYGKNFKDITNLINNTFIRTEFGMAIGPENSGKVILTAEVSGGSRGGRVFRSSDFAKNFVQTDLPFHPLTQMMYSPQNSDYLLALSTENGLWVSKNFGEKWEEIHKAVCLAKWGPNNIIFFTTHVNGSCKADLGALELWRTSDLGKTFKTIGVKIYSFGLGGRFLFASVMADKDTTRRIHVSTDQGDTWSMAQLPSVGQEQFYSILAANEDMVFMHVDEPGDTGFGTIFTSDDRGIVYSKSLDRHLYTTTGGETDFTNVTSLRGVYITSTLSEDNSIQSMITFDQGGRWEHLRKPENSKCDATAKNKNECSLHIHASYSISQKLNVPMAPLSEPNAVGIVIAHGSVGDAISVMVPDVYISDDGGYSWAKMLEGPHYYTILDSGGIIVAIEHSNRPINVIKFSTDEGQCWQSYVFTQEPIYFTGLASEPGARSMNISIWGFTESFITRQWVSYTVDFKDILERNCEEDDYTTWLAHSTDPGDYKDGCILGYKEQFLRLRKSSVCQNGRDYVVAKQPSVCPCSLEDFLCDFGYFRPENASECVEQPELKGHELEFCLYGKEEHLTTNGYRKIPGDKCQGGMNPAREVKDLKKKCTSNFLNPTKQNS
Assay: pull-down
Conditions: both partners purified

B1: His-tagged full-length recombinant PrP (natural protein)
chain: not shown
- binding result: binds

Reference: article PMC5509376 (PLoS Pathogens, 2017)
